The chains are these.
B1: Retinoic acid receptor alpha (RARα) (natural protein, mouse (endogenous in testis), UniProt P11416 1-462, looked up)
chain: MASNSSSCPTPGGGHLNGYPVPPYAFFFPPMLGGLSPPGALTSLQHQLPVSGYSTPSPATIETQSSSSEEIVPSPPSPPPLPRIYKPCFVCQDKSSGYHYGVSACEGCKGFFRRSIQKNMVYTCHRDKNCIINKVTRNRCQYCRLQKCFDVGMSKESVRNDRNKKKKEAPKPECSESYTLTPEVGELIEKVRKAHQETFPALCQLGKYTTNNSSEQRVSLDIDLWDKFSELSTKCIIKTVEFAKQLPGFTTLTIADQITLLKAACLDILILRICTRYTPEQDTMTFSDGLTLNRTQMHNAGFGPLTDLVFAFANQLLPLEMDDAETGLLSAICLICGDRQDLEQPDKVDMLQEPLLEALKVYVRKRRPSRPHMFPKMLMKITDLRSISAKGAERVITLKMEIPGSMPPLIQEMLENSEGLDTLSGQSGGGTRDGGGLAPPPGSCSPSLSPSSHRSSPATQSP
notes: Retinoic acid receptor alpha, mouse, endogenous in testis; band of 52 kDa; Endogenous protein of C57BL/6 mouse testis; source: endogenous, mouse P7 testis protein extract
B2: PRAMEX1 (Prame like, X-linked 1) (natural protein, mouse (endogenous in testis), UniProt F7ADI6 1-462, looked up)
chain: MDERDPSSLLDLAIQSLLSNELVAIHSLGEIPRELFVPLFSAAFTGGYRKILTSMVKIWPFTCLHIGTLSVQEPQRELLKAMVESLQFLPAQDCSSGGPKLRILDVRQGVDCKTTCPDFGARSPTCFHGCTHSVHSILKLESQYSIVDLKPESQSAIQPMELLVDLSLDGTLREREFFALLLNKVQQSSGSLHLCCRDLQIDRFSYAKNALKFLDLTCIQNLTVDQASLSEVTTLLARMIYLDSLSLSKITYRSLHGKVFRVFLNYLGRMNCLKELNLSSFSLTDHLDSLLRALPPNLDFLYLPFCEISYRDLKFLSQSAQATHLKLLNLSNNPMYWDDCGPFQTLLQKLSDTLQHLAINHCHLTDAILSAILPALSKCSHLRVISFVSNPISMPMLLKILHYLTPLMELKYVIYPIPIHCYEQWQFHGRLDRQKLTDVQAQLKAMLQAAKRSDMNWITYSQ
notes: PRAMEX1 (Prame like, X-linked 1), mouse, endogenous in testis; band of about 56 kDa; Endogenous protein of C57BL/6 mouse testis; no recombinant construct; source: endogenous, mouse P7 testis protein extract

Test [1] concerns the target B2. Put plainly: co-IP; anti-PRAMEX1 or anti-RARα antibody immobilised on protein A/G magnetic beads (Pierce Crosslink Magnetic IP/co-IP Kit); P7 testis proteins of WT, Pramex1 sKO and Pramel1 sKO mice, overnight at 4 °C; Western blot, band intensity relative to input (set as 1), n = 3. Conditions: partners not purified. A general note: Immunoblotting shows a protein as a band on a membrane.

Test [2] addresses B1. The test is described as above. Conditions: partners not purified.

Consider B1, for which, in test [1], the “band intensity in the PRAMEX1 precipitation relative to input, Pramel1 sKO testis” value was determined as 2.48 fold and the “band intensity in the PRAMEX1 precipitation relative to input, WT testis” value stood at 1.5 fold.
In the case of B2, in test [2], the “band intensity in the RARα co-IP relative to input, Pramel1 sKO testis” value was found to be 3.32 fold and the “band intensity in the RARα co-IP relative to input, WT testis” value was determined as 1.3 fold.
